The source of these data is the supplement of paper PMC7877785.

± gives the uncertainty stated by the source.

The nature of the data set: self-splicing fitness, log relative to wild type (ln ratio); higher = more splicing; Tetrahymena group I intron in knt gene, E. coli kanamycin selection, DiMSum; sequences stand for … in CUCUCU…GGAGGGAAAAGUUAUCAGGCAUGCACCUGGUAGCUAGUCUUUAAACCAAUAGAUUGCAUCGGUUUAAAAGGCAAGACCGUCAAAUUGCGGGAAAGGGGUCAACAGCCGUUCAGUACCAAGUCUCAGGGGAAACUUUGAGAUGGCCUUGCAAAGGGUAUGGUAAUAAGCUGACGGACAUGGUCCUAACCACGCAGCCAAGUCCUAAGUCAACAGAUCUUCUGUUGAUAUGGAUGCAGUUCACAGACUAAAUGUCGGUCGGGGAAGAUGUAUUCUUCUCAUAAGAUAUAGUCGGACCUCUCCUUAAUGGGAGCUAGCGGAUGAAGUGAUGCAACACUGGAGCCGCUGGGAACUAAUUUGUAUGCGAAAGUAUAUUGAUUAGUUUUGGAGUACUCGUGGUCG
The method in brief: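 Fitness was computed with DiMSum as the error-weighted combination of replicate fold changes, kanamycin versus none, each normalised to wild type. The library randomised all eight intron nucleotides of the P1ex region, with the intron placed in the knt kanamycin-resistance gene on pET-22b(+) in E. coli BL21(DE3). Six replicate transformations were grown overnight at 37°C or 30°C on LB agar with or without 25 μg/mL kanamycin, plus 100 μg/mL carbenicillin, 50 μM IPTG and 0.2% rhamnose. Pooled colonies were amplicon-sequenced on an Illumina HiSeq 2500.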

In the case of CACCAGCAAUAUUACGAUAA, the “self-splicing fitness (ln)” value by setting is: (30 °C) -4.88 ± 0.31; (37 °C) -2.14 ± 0.19.

Regarding CACUAGCAAUAUUACGAGAA, the “self-splicing fitness (ln)” value reads like this: (30 °C) -2.74 ± 0.43; (37 °C) -1.67 ± 0.28.

In the case of GACCAGCAAUAUUACGGACU, the “self-splicing fitness (ln)” value was -1.55 ± 0.082 (30 °C) and -0.595 ± 0.1 (37 °C).

As to UUUCAGCAAUAUUACGUGUA, the “self-splicing fitness (ln)” value runs as follows: (30 °C) -2.47 ± 0.12; (37 °C) -1.57 ± 0.1.

Regarding UGCAAGCAAUAUUACGGGCA, the “self-splicing fitness (ln)” value (30 °C) was -1.4 ± 0.11 and the “self-splicing fitness (ln)” value (37 °C) was -0.815 ± 0.096.

In the case of GGCGAGCAAUAUUACGAGGA, the “self-splicing fitness (ln)” value by setting is: (30 °C) -3.43 ± 0.43; (37 °C) -2.43 ± 0.25.

For the sequence UAAAAGCAAUAUUACGUCAU, the “self-splicing fitness (ln)” value is -3.62 ± 0.14 (30 °C) and -1.88 ± 0.1 (37 °C).

CUAGAGCAAUAUUACGAAAA: for the setting “30 °C”, the “self-splicing fitness (ln)” value is -1.94 ± 0.44.

Regarding GGACAGCAAUAUUACGGACC, the “self-splicing fitness (ln)” value (30 °C) is -1.35 ± 0.19 and the “self-splicing fitness (ln)” value (37 °C) was -1.02 ± 0.23.

Take AGUCAGCAAUAUUACGCCCU: the “self-splicing fitness (ln)” value is, setting by setting: (30 °C) -1.1 ± 0.24; (37 °C) -0.315 ± 0.3.

Take CCAGAGCAAUAUUACGAAUA: the “self-splicing fitness (ln)” value is, setting by setting: (30 °C) -2.84 ± 0.23; (37 °C) -3.27 ± 0.42.

Turning to AUUGAGCAAUAUUACGGAUU, the “self-splicing fitness (ln)” value (30 °C) was -2.96 ± 0.23 and the “self-splicing fitness (ln)” value (37 °C) was -1.64 ± 0.23.

As to AUUCAGCAAUAUUACGCAUA, the “self-splicing fitness (ln)” value reads like this: (30 °C) -0.701 ± 0.15; (37 °C) -1.07 ± 0.14.

As for CUAGAGCAAUAUUACGUGAG, the “self-splicing fitness (ln)” value is -0.395 ± 0.074 (30 °C) and 0.0704 ± 0.095 (37 °C).

Turning to AGCAAGCAAUAUUACGCUGU, the “self-splicing fitness (ln)” value reads like this: (30 °C) -2.69 ± 0.12; (37 °C) -0.265 ± 0.12.

As to GAUCAGCAAUAUUACGGGAG, the “self-splicing fitness (ln)” value (30 °C) is -1.64 ± 0.068 and the “self-splicing fitness (ln)” value (37 °C) was -0.581 ± 0.086.

Consider CACAAGCAAUAUUACGAGAC, for which the “self-splicing fitness (ln)” value runs as follows: (30 °C) -3.08 ± 0.17; (37 °C) -2.51 ± 0.17.

Consider CCAGAGCAAUAUUACGGGCG, for which the “self-splicing fitness (ln)” value by setting is: (30 °C) -1.5 ± 0.085; (37 °C) -0.383 ± 0.1.

With UAUUAGCAAUAUUACGUUUC, the “self-splicing fitness (ln)” value was -3.79 ± 0.28 (30 °C) and -2.98 ± 0.34 (37 °C).

As for UUGCAGCAAUAUUACGGCCA, the “self-splicing fitness (ln)” value reads like this: (30 °C) -0.118 ± 0.16; (37 °C) 0.347 ± 0.19.

With GACCAGCAAUAUUACGGAGC, the “self-splicing fitness (ln)” value reads like this: (30 °C) -0.563 ± 0.077; (37 °C) -0.0895 ± 0.11.

Consider CGGUAGCAAUAUUACGGCGU, for which the “self-splicing fitness (ln)” value runs as follows: (30 °C) -2.03 ± 0.14; (37 °C) -0.594 ± 0.13.

With ACGAAGCAAUAUUACGGGGA, the “self-splicing fitness (ln)” value by setting is: (30 °C) -2.81 ± 0.21; (37 °C) -1.57 ± 0.16.

For the sequence AGGAAGCAAUAUUACGAGGU, the “self-splicing fitness (ln)” value was -3.85 ± 0.34 (30 °C) and -2.97 ± 0.24 (37 °C).

Take AUGAAGCAAUAUUACGGGUU: the “self-splicing fitness (ln)” value (30 °C) is -1.62 ± 0.11 and the “self-splicing fitness (ln)” value (37 °C) was -1.07 ± 0.12.

Regarding UGCAAGCAAUAUUACGCACC, the “self-splicing fitness (ln)” value was -1.89 ± 0.24 (30 °C) and -1.25 ± 0.32 (37 °C).

In the case of ACUAAGCAAUAUUACGACUC, the “self-splicing fitness (ln)” value is, setting by setting: (30 °C) -0.352 ± 0.12; (37 °C) 0.402 ± 0.14.

With CGAGAGCAAUAUUACGGUGU, the “self-splicing fitness (ln)” value is, setting by setting: (30 °C) -3.56 ± 0.21; (37 °C) -2.73 ± 0.24.

Turning to AACCAGCAAUAUUACGAUCA, the “self-splicing fitness (ln)” value (30 °C) was -0.638 ± 0.1 and the “self-splicing fitness (ln)” value (37 °C) was -0.0996 ± 0.11.

As for GAGUAGCAAUAUUACGACGG, the “self-splicing fitness (ln)” value reads like this: (30 °C) -2.74 ± 0.2; (37 °C) -1.57 ± 0.25.
